Experimental data taken from US20220073613A1 (XILIO DEVELOPMENT, published 2022).

Columns and labels:
[1] = biological target: T1, human CTLA4-Fc (R&D Systems, #7268-CT) (human, UniProt P16410 36-162); experiment: CTLA4 ELISA (luminescence) after culture of the antibody in colon tumor conditioned media
T1 construct: Bought; not shown: Fc part

[2] = biological target: T1, human CTLA4-Fc (R&D Systems, #7268-CT); experiment: ELISA, human CTLA4-Fc coated; protease +
[3] = biological target: T1, human CTLA4-Fc (R&D Systems, #7268-CT); experiment: low density antigen binding ELISA, human CTLA4-Fc coated; no protease
[4] = biological target: T1, human CTLA4-Fc (R&D Systems, #7268-CT); experiment: low density antigen binding ELISA, human CTLA4-Fc coated; control not exposed to protease
[5] = biological target: CTLA4 on CTLA4 expressing Jurkat cells (UniProt P16410 36-223, limits assumed); experiment: cell-based or functional assay
Chain of CTLA4 on CTLA4 expressing Jurkat cells (P16410 36-223 limits assumed): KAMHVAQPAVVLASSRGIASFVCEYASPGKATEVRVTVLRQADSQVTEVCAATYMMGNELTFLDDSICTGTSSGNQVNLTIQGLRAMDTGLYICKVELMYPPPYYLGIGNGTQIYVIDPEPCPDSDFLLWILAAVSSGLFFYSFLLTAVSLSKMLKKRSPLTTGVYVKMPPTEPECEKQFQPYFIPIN

[6] = biological target: T1, human CTLA4-Fc (R&D Systems, #7268-CT); experiment: ELISA, human CTLA4-Fc coated; protease -
[7] = biological target: T1, human CTLA4-Fc (R&D Systems, #7268-CT); experiment: ELISA, human CTLA4-Fc coated; protease -; remark: listed apart in the source
[8] = biological target: T2, CTLA4 coated on an MSD plate (Homo sapiens (Human), UniProt P16410 36-161); experiment: binding to a CTLA4-coated MSD plate; antibody from plasma of MB49-bearing B-hCTLA4 mice 4 days after 10 mg/kg, IgG quantified by ELISA, 3-fold dilutions (Example 16)
T2 construct: not shown: The carrier of the coated recombinant CTLA4; It is probably the Fc of a CTLA4-Fc, as in the other ELISAs
T2 sequence (P16410 36-161 limits assumed): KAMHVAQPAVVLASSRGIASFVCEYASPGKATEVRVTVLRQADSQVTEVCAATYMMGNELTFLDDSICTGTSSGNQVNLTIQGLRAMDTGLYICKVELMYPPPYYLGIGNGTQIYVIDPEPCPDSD

[9] = biological target: T1, human CTLA4-Fc (R&D Systems, #7268-CT); experiment: CTLA4 ELISA (luminescence) after culture of the antibody in RPMI as control
[10] = biological target: T3, murine CTLA4-Fc (R&D Systems) (murine, UniProt P09793 36-162); experiment: ELISA, plate-coated murine CTLA4-Fc, anti-muKappa-HRP; ratio of EC50s
T3 construct: Bought; also called muCTLA4-hsIgG (R&D Systems); not shown: human IgG Fc part (hsIgG)

[11] = biological target: T4, muCTLA4hsIgG protein (Abcam) (murine, UniProt P09793 36-161, limits assumed); experiment: low density antigen binding ELISA, muCTLA4hsIgG coated; average of three experiments
T4 construct: Bought; also called murine CTLA4; not shown: human IgG part (hsIgG)

[12] = biological target: T4, muCTLA4hsIgG protein (Abcam); experiment: low density antigen binding ELISA, 3 ng muCTLA4hsIgG per well

T1 sequence (P16410 36-162 limits assumed): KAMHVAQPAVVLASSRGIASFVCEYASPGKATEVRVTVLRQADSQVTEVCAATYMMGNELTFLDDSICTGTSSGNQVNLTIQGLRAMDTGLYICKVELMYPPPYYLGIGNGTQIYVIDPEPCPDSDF

| Binder | EC50 (read off the curve) [1] [nM] | EC50 [2] [nM] | EC50 [3] [nM] | EC50 [4] [nM] | EC50 of FcγRIIIa (ADCC) reporter activation, after exposure to protease [5] [ng/mL] | EC50 of FcγRIIIa (ADCC) reporter activation, without protease [5] [ng/mL] | EC50 [6] [nM] | EC50 [7] [nM] | EC50 (read off the curve) [8] [ng/mL] | EC50 (read off the curve) [9] [nM] | fold lower binding than parental anti-CTLA4 antibody (9D9) [10] [fold] | EC50 [11] [nM] | fold lower binding than parental anti-CTLA4 antibody [12] [fold] |
| --- | --- | --- | --- | --- | --- | --- | --- | --- | --- | --- | --- | --- | --- |
| Antibody 2-6 (antibody, human IgG1, kappa, Unmasked version of Antibody 2 with S239D and I332E in the Fc region; also called unmasked parental antibody; parental unmasked Antibody 2-6) light: EIVLTQSPDFQSVTPKEKVTITCSANSALSYMYWYQQKPDQSPKLWVHGTSNLASGVPSRFSGSGSGTDFTLTINSLEAEDAATYYCHHWSNTQWTFGGGTKVEIKRTVAAPSVFIFPPSDEQLKSGTASVVCLLNNFYPREAKVQWKVDNALQSGNSQESVTEQDSKDSTYSLSSTLTLSKADYEKHKVYACEVTHQGLSSPVTKSFNRGEC heavy: not shown | ~0.4 | 0.39 | 0.69 | 0.69 | 0.0049 | 0.008 | 0.39 | 0.69 | ~7 | ~0.6 |  |  |  |
| activatable masked anti-CTLA4 antibody (masked 9D9) (antibody, mouse IgG2a, kappa, Murine IgG2a; also called masked anti-CTLA4 antibody 2) light: ACNLIVEGHCGGSVPLSLYSGGGDIVMTQTTLSLPVSLGDQASISCRSSQSIVHSNGNTYLEWYLQKPGQSPKLLIYKVSNRFSGVPDRFSGSGSGTDFTLKISRVEAEDLGVYYCFQGSHVPYTFGGGTKLEIKRADAAPTVSIFPPSSEQLTSGGASVVCFLNNFYPKDINVKWKIDGSERQNGVLNSWTDQDSKDSTYSMSSTLTLTKDEYERHNSYTCEATHKTSTSPIVKSFNRNEC heavy: EAKLQESGPVLVKPGASVKMSCKASGYTFTDYYMNWVKQSHGKSLEWIGVINPYNGDTSYNQKFKGKATLTVDKSSSTAYMELNSLTSEDSAVYYCARYYGSWFAYWGQGTLITVSSAKTTAPSVYPLAPVCGDTTGSSVTLGCLVKGYFPEPVTLTWNSGSLSSGVHTFPAVLQSDLYTLSSSVTVTSSTWPSQSITCNVAHPASSTKVDKKIEPRGPTIKPCPPCKCPAPNLLGGPSVFIFPPKIKDVLMISLSPIVTCVVVDVSEDDPDVQISWFVNNVEVHTAQTQTHREDYNSTLRVVSALPIQHQDWMSGKEFKCKVNNKDLPAPIERTISKPKGSVRAPQVYVLPPPEEEMTKKQVTLTCMVTDFMPEDIYVEWTNNGKTELNYKNTEPVLDSDGSYFMYSKLRVEKKNWVERNSYSCSVVHEGLHNHHTTKSFSRTPGK |  |  |  |  |  |  |  |  |  |  | 90 | 48.4 | ~156 |
